{
  "source": "paper PMC8688910",
  "target": "IpaB (invasion plasmid antigen B), C-terminal his6-tag, produced in CFPS (S. flexneri 2a)",
  "assay": "SEC-MALS; Superdex200 10/30 Increase, 50 mM Tris pH 8, 150 mM NaCl, 0.1% (v/v) LDAO, 0.5 mL/min, column 25 °C, about 50-100 μg injected",
  "data": [
    {"substance": "IpaB (invasion plasmid antigen B), C-terminal his6-tag, produced in CFPS (natural protein)", "values": [
      {"measurement": "stoichiometry N", "value": 2}
    ]}
  ]
}
